Data on three molecules can be found in patent US20250115680A1 (PROFOUNDBIO US, published 2025).

The target of test [1] is T1, cynomolgus PTK7 extra-cellular domain (ECD) linked to His tag (cynomolgus monkey, UniProt A0A2K5VNI5 39-712).
T1 construct: extracellular domain; also called cPTK7-his; cynomolgus monkey PTK7-his protein; not shown: His tag
T1 sequence: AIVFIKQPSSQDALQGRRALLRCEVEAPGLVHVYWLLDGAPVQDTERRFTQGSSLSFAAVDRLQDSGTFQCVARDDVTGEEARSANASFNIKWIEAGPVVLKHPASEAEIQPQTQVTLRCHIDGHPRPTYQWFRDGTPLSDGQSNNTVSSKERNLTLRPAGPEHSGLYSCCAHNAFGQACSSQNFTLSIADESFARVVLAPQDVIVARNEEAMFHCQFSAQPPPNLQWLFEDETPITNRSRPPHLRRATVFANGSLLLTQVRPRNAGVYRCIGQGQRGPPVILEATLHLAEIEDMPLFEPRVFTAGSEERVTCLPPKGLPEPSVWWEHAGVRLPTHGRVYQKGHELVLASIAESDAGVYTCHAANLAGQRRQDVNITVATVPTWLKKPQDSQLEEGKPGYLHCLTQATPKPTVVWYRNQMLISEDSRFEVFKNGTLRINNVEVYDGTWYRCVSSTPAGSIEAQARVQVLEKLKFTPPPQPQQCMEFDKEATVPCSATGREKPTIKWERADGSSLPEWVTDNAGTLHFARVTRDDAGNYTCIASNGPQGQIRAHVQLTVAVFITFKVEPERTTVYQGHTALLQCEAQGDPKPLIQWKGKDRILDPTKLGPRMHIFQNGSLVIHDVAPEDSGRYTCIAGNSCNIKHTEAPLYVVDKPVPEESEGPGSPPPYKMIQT
Briefly: BLI (Octet RED), antibody on anti-human IgG Fc tips, PTK7 ECD-His 100 to 1.56 nM in solution, 1:1 global fit. As to the method: (§1) Recombinant proteins consisting of the PTK7 extra-cellular domain (ECD) linked to His tag were purchased from ACRO biosystems. […] Binding assays using varying concentrations from 100 nM down to 1.56 nM of recombinant proteins (human, cynomolgus) in solution were performed using Octet RED (ForteBio). Association time was set at 180 seconds and dissociation time was set at 300 seconds. Binding affinity was calculated using ForteBio Data Acquisition 6.3 software (ForteBio). Affinity was derived by fitting the kinetic data to a 1:1 Langmuir binding model utilizing global fitting algorithms.
On the technique in general: Biolayer interferometry detects binding as a change in optical thickness at a sensor tip.

In test [2] the target is T2, human PTK7 extra-cellular domain (ECD) linked to His tag (human, UniProt Q13308 31-704).
T2 construct: extracellular domain; also called hPTK7-his; human PTK7-his protein; not shown: His tag
T2 sequence (looked up): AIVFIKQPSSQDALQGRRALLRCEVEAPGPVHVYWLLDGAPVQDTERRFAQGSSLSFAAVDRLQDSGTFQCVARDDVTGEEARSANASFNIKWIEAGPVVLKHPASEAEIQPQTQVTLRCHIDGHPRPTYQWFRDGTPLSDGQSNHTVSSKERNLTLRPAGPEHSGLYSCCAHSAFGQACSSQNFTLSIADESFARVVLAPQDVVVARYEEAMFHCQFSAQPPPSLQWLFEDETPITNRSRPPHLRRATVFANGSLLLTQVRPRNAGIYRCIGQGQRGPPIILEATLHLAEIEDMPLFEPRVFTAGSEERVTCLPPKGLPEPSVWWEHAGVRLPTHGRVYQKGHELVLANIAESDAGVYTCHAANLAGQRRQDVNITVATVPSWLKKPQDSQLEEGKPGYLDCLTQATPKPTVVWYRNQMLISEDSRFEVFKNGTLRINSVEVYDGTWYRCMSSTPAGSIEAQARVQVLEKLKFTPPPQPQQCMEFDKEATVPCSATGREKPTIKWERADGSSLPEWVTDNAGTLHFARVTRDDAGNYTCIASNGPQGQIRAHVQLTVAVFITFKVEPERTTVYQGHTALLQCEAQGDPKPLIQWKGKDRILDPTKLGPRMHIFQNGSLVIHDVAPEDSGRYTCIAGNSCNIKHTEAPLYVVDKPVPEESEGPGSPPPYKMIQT
Described as above. As for the experimental part:
as §1

The target in test [3] is T3, mouse PTK-7 recombinant protein (mouse, UniProt Q8BKG3 23-696, limits assumed).
T3 construct: also called mouse PTK7 protein
T3 sequence (looked up): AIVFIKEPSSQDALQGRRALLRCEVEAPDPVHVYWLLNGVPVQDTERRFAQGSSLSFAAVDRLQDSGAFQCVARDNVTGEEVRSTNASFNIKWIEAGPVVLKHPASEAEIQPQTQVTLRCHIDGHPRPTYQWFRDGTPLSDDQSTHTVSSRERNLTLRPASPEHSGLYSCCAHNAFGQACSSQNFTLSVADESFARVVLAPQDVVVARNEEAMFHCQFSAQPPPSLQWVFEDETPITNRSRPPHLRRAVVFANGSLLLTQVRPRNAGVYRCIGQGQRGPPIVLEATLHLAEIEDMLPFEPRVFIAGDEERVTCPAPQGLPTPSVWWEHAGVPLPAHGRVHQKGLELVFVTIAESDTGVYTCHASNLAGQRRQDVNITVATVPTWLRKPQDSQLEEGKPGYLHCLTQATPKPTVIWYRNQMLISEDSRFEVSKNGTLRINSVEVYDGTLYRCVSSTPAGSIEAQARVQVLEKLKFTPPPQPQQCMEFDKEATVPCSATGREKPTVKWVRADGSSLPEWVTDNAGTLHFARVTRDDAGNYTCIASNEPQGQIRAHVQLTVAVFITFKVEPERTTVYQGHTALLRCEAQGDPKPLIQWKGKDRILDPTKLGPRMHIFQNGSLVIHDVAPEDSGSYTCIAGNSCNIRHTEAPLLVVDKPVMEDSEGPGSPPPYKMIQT
Briefly: ELISA, plate-coated mouse PTK7 recombinant protein. As for the experimental part:
Binding specificity property was tested by ELISA according to a standard protocol. Specifically, 96-well micro-plates were coated with 2 μg/mL human, cynomolgus, mouse, and rat PTK-7 recombinant protein in PBS 100 μL per well, incubated overnight at 4° C. Plates were washed twice by TBS+0.5% Tween20. 200 μL of blocking buffer (2% BSA in PBS) was added to each well and incubated at 37° C. for 2 hours. Plates were washed using the buffer mentioned above. Serially diluted antibodies were added to the ELISA plate with 100 μL per well and incubated for 1 hour at room temperature. Then plates were washed for 3 times. After washing, HRP conjugated anti-human Fc antibody solution (abcam, ab98624, diluted with blocking buffer) was added to the plate with 100 μl per well. The plates were incubated at room temperature for 1 hour and then washed for 3 times. Then TMB solution was added to plates with 100 μl per well, placed at room temperature for 5-15 mins, then the stop solution (2M H₂SO₄) was added with 50 μl per well. Finally, the result was measured by absorbance at A₄₅₀ and A₆₃₀.
A general note: An ELISA detects its analyte on a solid surface through an enzyme-linked reagent.

B1: humanized antibody 2C5 (antibody, V domains shown)
VH: QVQLVQSGAEVKKPGASVKVSCKASGYTFTDYYINWVRQAPGQGLEWMGDINPYSGGPVYNQKFMARVTMTVDKSINTAYMELSRLRSDDTAVYYCARGDYYGSNYNYWGQGTLVTVSS
VL: EIVLTQSPATLSVSPGERATLSCRASQNIGTSIHWYQQKPGQAPRLLIKFASESISGIPARFSGSGSGTEFTLTISSLQSEDIAVYYCQQSNNWPYTFGQGTKLEIK
notes: Only variable regions are tied to 2C5; It was detected with anti-human Fc, so it has a human Fc
In general, Kd refers to the equilibrium constant for the complex coming apart. A high value points to weaker binding. The koff is the first-order rate constant of dissociation. Lower therefore signals a long-lived complex. What is called kon is a measure of how fast the partners come together. Read a low kon as slow association. As for B1, in test [1], binding was put at a Kd of 0.0904 nM, the koff was found to be 2.02e-05 s⁻¹ and the kon came to 224000 M⁻¹ s⁻¹. Also, in test [2], the Kd was at most 0.00139 nM, the koff is under 1e-07 s⁻¹ and the kon was determined as 34800 M⁻¹ s⁻¹.

B2: humanized antibody 13C4 (antibody, V domains shown)
VH: QVQLVESGGGLVKPGGSLRLSCAASGFAFSTYDMFWIRQAPGKGLEWVSTISSGGGYTYYPGSVKGRFTISRDNAKNSLYLQMNSLRAEDTAVYYCVRPLLRDSYFYFDVWGQGTMVTVSS
VL: EIVMTQSPATLSVSPGERATLSCRASSSVSSSYLHWYQQKPGQAPRLLIFRTSNLASGIPARFSGSGSGTEYTLTISSLQSEDAAVYYCQQYSGYPLTFGQGTKLEIK
notes: Only variable regions are tied to 13C4; It was detected with anti-human Fc
As for B2, in test [1], the Kd is under 0.001 nM, the koff was under 1e-07 s⁻¹ and the kon was 54100 M⁻¹ s⁻¹. In test [2], this molecule displayed a Kd of 0.798 nM, a koff of 0.000132 s⁻¹ and a kon of 166000 M⁻¹ s⁻¹. Further, the binding result in test [3] was “no binding”.

B3: humanized antibody 2C8 (antibody, V domains shown)
VH: QIQLVQSGAEVKKPGASVKVSCKASGYTFTTYGMSWVRQAPGQGLEWMGWINTHSGVPTYVDEFKGRVTMTLDTSTSTAYMELSSLRSEDTAVYYCARSPFDYGSRGAWFVYWGQGTTVTVSS
VL: DVVMTQSPDSLAVSLGERATINCRSSQSIVHNSGDTYLEWYQQKPGQPPKLLIYKVSNRFPGVPDRFSGSGSGTDFTLTISSLQAEDLAVYYCFQGSHVPWTFGGGTKVEIK
notes: Only variable regions are tied to 2C8 by name; It was detected with anti-human Fc
As to B3, in test [3], the binding result was “no binding”.
